Source: article doi:10.1101/2023.08.07.552313 (bioRxiv, 2023)

Molecular target: NEIL1 DNA glycosylase (Homo sapiens (; the 390 aa …, UniProt Q96FI4)
Assay: two-hybrid

Sequence of NEIL1 DNA glycosylase (Homo sapiens (Q96FI4 whole entry): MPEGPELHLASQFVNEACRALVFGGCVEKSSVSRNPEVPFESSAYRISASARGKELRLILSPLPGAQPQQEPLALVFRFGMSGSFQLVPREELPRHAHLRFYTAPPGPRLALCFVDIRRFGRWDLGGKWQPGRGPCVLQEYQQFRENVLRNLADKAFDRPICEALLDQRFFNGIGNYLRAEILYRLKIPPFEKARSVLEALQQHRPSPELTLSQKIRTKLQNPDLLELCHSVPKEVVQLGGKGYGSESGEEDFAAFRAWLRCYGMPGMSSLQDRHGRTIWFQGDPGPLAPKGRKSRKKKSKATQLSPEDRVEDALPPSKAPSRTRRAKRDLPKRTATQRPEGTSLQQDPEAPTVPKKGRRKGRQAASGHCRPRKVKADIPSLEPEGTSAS

binding result: binds
B1: A5 nanobody (anti-NEIL1 nanobody) (VHH)
VHH: EVQLQASGGGFVQPGGSLRLSCAASGATSERDIMGWFRQAPGKEREFVSAISYEPGGWHYYADSVKGRFTISRDNSKNTVYLQMNSLRAEDTATYYCAWQEIMYGEAYWRYWGQGTQVTVSS
